Assay results from CN109666072A (ZONHON BIOPHARMA INST INC, dated 2019).

B1: 杂交瘤细胞株B12所表达抗体 (antibody expressed by hybridoma cell line B12) (antibody, V domains shown)
VH: DVKLVESGGGLVKPGGSLKLSCAASGFTFGSYTMSWVRQTPEKRLEWVAAISSGGSFTYYLDSVKGRFTISRDSAKTTLYLQMGSLKSEDTAMYYCSREGGPYYGSHYYALDYWGQGTSVTVSS
VL: DIQMTQSTSSLSASLGDGVTISCRASQDITNYLNWYQQRPDGAVRLLIYYTSRLHSGVPSRFSGSGSGTNYSLTISNLEQEDIATYFCQQGNTLPPTFGGGTKLEIK
notes: Mouse monoclonal antibody tested as hybridoma culture supernatant and detected with HRP goat anti-mouse IgG
B2: 杂交瘤细胞株B17所表达抗体 (antibody expressed by hybridoma cell line B17) (antibody, V domains shown)
VH: not shown
VL: QIVLTQSPAIMSASPGEKVTITCSASSSVSYMHWFQQKPGTSPKLWIYSTSNLASGVPARFSGSGSGTSYSLTISRMEAEDAATYYCHQRSSYPLTFGAGTKLEIK
notes: as for B1
B3: 单链抗体BM12 (anti-human β2-microglobulin scFv BM12) (scFv)
scFv: DVKLVESGGGLVKPGGSLKLSCAASGFTFGSYTMSWVRQTPEKRLEWVAAISSGGSFTYYLDSVKGRFTISRDSAKTTLYLQMGSLKSEDTAMYYCSREGGPYYGSHYYALDYWGQGTSVTVSSGGGGSGGGGSGGGGSDIQMTQSTSSLSASLGDGVTISCRASQDITNYLNWYQQRPDGAVRLLIYYTSRLHSGVPSRFSGSGSGTNYSLTISNLEQEDIATYFCQQGNTLPPTFGGGTKLEIK
notes: expressed in Pichia pastoris X-33; HRP-labelled in the Western blot; used as coating or gold-labelled antibody in the colloidal gold card; also called BM12-HRP; BM12-scFv
B4: 单链抗体BM17 (anti-human β2-microglobulin scFv BM17) (scFv)
scFv: QVTLKESGPGILQPSQTLSLTCSFSGFSLSTSGMGVSWIRQPSGKGLEWLAHIYWDDDKRYNPSLKSRLTISKDTSSNQVFLKITSVDTADTATYYCARVYYGYDGGFFDYWGQGTTLTVSSGGGGSGGGGSGGGGSQIVLTQSPAIMSASPGEKVTITCSASSSVSYMHWFQQKPGTSPKLWIYSTSNLASGVPARFSGSGSGTSYSLTISRMEAEDAATYYCHQRSSYPLTFGAGTKLEIK
notes: expressed in Pichia pastoris X-33; HRP-labelled in the Western blot; used as gold-labelled or coating antibody in the colloidal gold card; also called BM17-HRP; BM17-scFv

How the values were obtained:
[1] = target: T1, 重组人β2-微球蛋白 (recombinant human β2-microglobulin, expressed in E. coli) (human, UniProt P61769 21-119); assay: indirect ELISA, hybridoma supernatant on coated recombinant human β2-MG (1 μg/mL), HRP goat anti-mouse IgG
T1 construct: The same in-house recombinant protein serves as immunogen, ELISA coat and Western blot sample; also called β2-MG; 人β2-MG

[2] = target: T1, 重组人β2-微球蛋白 (recombinant human …); assay: Western blot, HRP-labelled scFv on recombinant β2-MG

T1 sequence (P61769 21-119 limits assumed): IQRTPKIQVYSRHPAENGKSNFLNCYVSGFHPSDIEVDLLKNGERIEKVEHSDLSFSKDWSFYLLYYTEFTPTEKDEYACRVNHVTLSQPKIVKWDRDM

Binder | binding result [1] | binding result [2]
B1 | binds | 
B2 | binds | 
B3 |  | binds
B4 |  | binds
